Results reported in the DeepSol protein solubility set.

Experiment: soluble on expression in E. coli; label from the status in PepcDB or PDB records

| Sequence | soluble on expression in E. coli |
| --- | --- |
| MSNVAKSYKSSDPVIAYCSEHTTIQSPLQAELLKETLDNAPMSMMLGAPEVLTFGQNFIRSFGGRRVIDVGTYTGASALAWALAVPDDGEVFTFDIDHTNYKKFGVPIISKCEKTFKKIRAIEGSALDGLDKLIADGQSGTFDFAFIDADKVNYSNYYDRAVTLLRKGGVIFVDNSLWNGSVCDPARRTEPSTVAIHQANDKIFKDDRTYSALINLGDGTHIAFKK | not soluble |
| MFTIKTDDLTHPAVQALVAYHISGMLQQSPPESSHALDVQKLRNPTVTFWSVWEGEQLAGIGALKLLDDKHGELKSMRTAPNYLRRGVASLILRHILQVAQDRCLHRLSLETGTQAGFTACHQLYLKHGFADCEPFADYRLDPHSRFLSLTLCENNELP | soluble |
| MQDLLTLRFLDTYDNILFIGNSGVGKTHLAVSIGLECIDRGLSCLFITSTELVNRLIRAHKRGTSETMLKKYSGYSVLIIDEVGYLPFSKEGSNLLFQLINMRYERKSTIVTTNIPLSQWSEIFGNKKLTNALLDRLVHHSKLIQITGPSYRMKSYSENKEVKSLEHHHHHH | soluble |
| MPSSGRGGAFFPDPCVFHGAYLPSGSSRWAKESTMFFIAKYKRNTEWLKMIFSNALHGVQEGSGFEWKAFVTLMPTELRVVSLSQELLRLWLVISYTVRDVRTYFFP | not soluble |
| MGSDKIHHHHHHMLSCHLTSPNLVPCETVDNRSSFQILFDHESIIKTYVPVMKLRFRQLQAFHAIVETGTVTGAAGLLGISQPGVSNLLSQLEDQAGMALFERLHGRLLPTPEAELLFAEVDTVMRGMSKVTQTMVDLKTRKLGQLQIASQHAMSFGFMPRLIARFASDRPELNISFQSQYSSKVQEWVWNGLFEIGVCEMPLLYDTLTVYPLYVETMLALHKDNPLARHEVLTPELLAGEPFIVMGQDHMTHRRLREAFQDAGVPLRTRVHSHLFKNLLSFVQEGMGVALLDRFMFDYDMQGDVITRPFRPTIRMDMCVITSKSRPMSQLGKEFLDLLLGELQHYSVEGRPLVPAERKRR | not soluble |
| PPTGECRTVVFDFDGVLAEGFEGEVRPRPLGVALARRLIGRGYRVYIVSGRPEQERSLIARLLREWCIPLGGVRGIILRRRGVGEVDHKLESIMEVEAREGCVGEVHDDNPYVLEALRRRVETLVLHTPR | not soluble |
| MGSDKIHHHHHHMSGHKCSYPWDLQDRYAQDKSVVNKMQQKYWETKQAFIKATGKKEDEHVVASDADLDAKLELFHSIQRTCLDLSKAIVLYQKRICFLSQEENELGKFLRSQGFQDKTRAGKMMQATGKALCFSSQQRLALRNPLCRFHQEVETFRHRAISDTWLTVNRMEQCRTEYRGALLWMKDVSQELDPDLYKQMEKFRKVQTQVRLAKKNFDKLKMDVCQKVDLLGASRCNLLSHMLATYQTTLLHFWEKTSHTMAAIHESFKGYQPYEFTTLKVWKLEGPLENLEKSKVLFISQAKSIAESIIIPGLRMLKRELCPQQSLFLSFFLFFYCIRIQYNENLLQSKSAN | not soluble |
| MGSDKIHHHHHHMKSPQELRNKLFRYWRQPGLRLRQLLDQAAWPLVLSIGKPTAQVFSSQVAMVQKHVEAWREVSVGKVEWKRIGYRSGADLVSIPTQWCLRSPTEWITAMSNEEISAQYMSLEHLVEHLPAVYRRLIITRPSLWKNKRSEEVIQVAGLAQRLSPGCAQGLPLRLLSGYGVDTKFFERNELLLSKMLDVRYEGEASRQGLCDFLDAYDDTSHWVLLAPLEAGLLPFKRQLVTTSELGRASLPGTRLLIVENQKCLHLLRELPGTIAILGCGSDLAWLGSAQLHGKSIAYWGDVDTWGMRMLARARSRFNAVIPLLMTATVFDAHSDFTVPEPIRAQDTPPADLTPSETALFKRLVQCSRGRLEQEFISREVVWAALEEWIQRRRG | not soluble |
| VSRDENSWLIDGATPLEEVTRVLDIAYFPDEENYETISGFMMYMLRKIPKKTDSVVYGKYKFEVIDTENFKIDQILVSLVKEQE | not soluble |
| MGSDKIHHHHHHTVDNRHDPLESMNRAVFSFNEKLDEVVLEPVARGYQRFIPSPVRMIVGNFFSNLDDVVVAANSLLQLKFMDAMASTTRIVINTTFGMLGAIDLASDISQVSDIDISKRNEDFGQTLGFYGIGSGPYLVLPILGPSTVRDTVGIGVDSTIFHPARAIYTSFDLLTVRLPVTTVEFIDRREQLLDLDKTLEEASLDKYEFVRDAYLQRRESLIKNDGAASEEEPVNFDEEEIIIDD | not soluble |
| MSANVDLNQRPDYDAVLQDIADYVLDYRIDSTEALDTARNCLMDTLGCGLLALRFPECTKHLGPLVEGTLVPHGARVPGTSFRLDPVKAAWDIGCIVRWLDYNDTWLAAEWGHPSDNLGGILAVADHLSQKRLANGEAPLSMRQVLEAMIMAHEIQGVIALENSFNRVGLDHVLLVKVASTAVCAKLMGADREQLLAALSHAFVDGQALRTYRHAPNAGSRKSWAAGDATSRGVRLADIALRGEMGIPGVLSAPQWGFYDVLFSHTSKDLATKPEDKRRFSFPQGYGSYVMENVLFKISFPAEFHAQTAAEAAVRLHPLVKDRLQRISRIVITTHESAIRIISKVGPLANPADRDHCLQYMTAVPLIFGDLVAEHYEDAFHAAHPLIDRLREKMEIVEEPRYSREYLEADKRSIANAVEVFFDDGSSTGQVAVEYPLGHRRRRAEGIPLLQEKFKANLATRFPPQRCQRIFDLCSHQASLEATPVNRFMDLLAI | not soluble |
| MSEKEIWDKVLEIAQERISNTSYQTFIKDTQLYSLKNDEAIILVSLPFNASWLNQRYSEIMQAIIYDVIGYEVKPHFISEDELASYNNVNTQEVQEPQVQHSSIDDKTWGKEQFNMHNTFDTFVIGPGNRFPHAASLAVAEAPAEAYNPLFIYGGVGLGKTHLMHAIGHHVLSNKPNAKVIYTSSEKFTNEFIKSIRDNETEAFREKYRKIDVLLIDDIQFIQNKEQTQEEFFHTFNELHQNNKQIVISSDRPPKEIAKLEDRLRSRFEWGLIVDITPPDYETRMAILQKKIEEENLDIPPEALNYIANQIQSNIRELEGALTRLLAYSKLQGKPITTELTAEALKDIIQSPKSKKITIQDIQKVVGQYYSVRIEDFSAKKRTKSIAYPRQIAMYLSRELTDFSLPKIGEEFGGRDHTTVIHAHEKIANDIKSDPTFKQEVENLEKEIRNQLEHHHHHH | not soluble |
| MSLNSKDIAKIVGVSRSTVSRVINNYPDIPQATREKVLKAIKEYNYYPNASARRLAGMKSSTLGIFIIDIKDNEKPHHVIENNEDLLYGNSYFSPFINAFIDQSNKAQYHVLVSTIYSSDELWKIQSAFYEKRIDGAVIIGSSSIDYSKIFEIMDKDSITVAVDLDMEKENTGTVMSVNINNYGGVSDAIDYLVELGHKDIAVITGDLNKLSGKIRFESFKDALLRHGLPLNNDFIAYGDFTENSGYEGMKKILASGKKPTAVFTSNDTMAIGAYRAIKEYGLKIPEDISVMGFDNSYISQYMSPPLTTVNVSLPEIAKCSIELLLDSINNKEIKNRQKTVNVQIVKRNSCKKEGHHHHHH | soluble |
| MGSDKIHHHHHHMRDSTQLPVTRRMLPSLYQSICLILCSQNLSGINLSGISPSSISLGPSTLFRHTRLSQRLAKFQIPRPIKHQSQRFSIFALACFVAATLSGCANSLETCARTELKLTWAEPAELQATVTILSSDEFEGRKTQTQGAAKSRDYIKQQFESLNLQPWGADFIVPFEYQTFFTQETGANVVATAMATEPTNRWRIIVAHYDHLGMSGSKIYHGADDNASGVAAMLAIAKHWQQQFALQPNTLPKVNLMFVATDAEEPGLYGSIALVEQLKTRLPEATFELMINLDMVSHPGRPYGIYLEGSRNFTQFNQFKSLLNQQNRLCIKLTHPKPVGRSIQSTDWLRASDHYPFHKANIPWLYFGVPTHPQYHTPEDTVATIDITFLAAVTESAFELLQLNAEYLKN | not soluble |
| MDRQGFVPAAYVKKLDSGTGKELVLALYDYQEKSPREVTMKKGDILTLLNSTNKDWWKVEVN | soluble |
| MGLDKGKQQTAKKPGFNCKPFEFEISSTKFQIPNDKPLKYTLKCTADEKQDVIIQVHSVFFEIVGARRKHGVTSQEFHVLGKNEEMTFEIGLKDLTNVSYDNFEHAQLASAAGFITFTHYKSSRDDDSDASWGPNKNLLIVITDGMEEVGFWKKKLSVETETDEMKKVKEEFGVKLEGEKKYEEIDKMEMDRMRKEIGKNQSARDDGFAPIKDMHKKYLKEKYECVIS | soluble |
| AEAQNDPLLPGYSFNAHLVAGLTPIEANGYLDFFIDRPLGMKGYILNLTIRGQGVVKNQGREFVCRPGDILLFPPGEIHHYGRHPEAREWYHQWVYFRPRAYWHEWLNWPSIFANTGFFRPDEAHQPHFSDLFGQIINAGQGEGRYSELLAINLLEQLLLRRMEAINESLHPPMDNR | soluble |
| AIATYPTNLEIIGGQGGSSFSFTGENNGASLEKIWVWVGGWQIKAVRAWLSDGRDETFGVPSGSHQEYVFTPGECFTSLSLWGNGAGTRLGAIKFKTNKGGEFFAHMTSWGLKTEYPMDVGSGYCLGIVGRGGSDIDCMGFMFLNAVQSTVLTNVNYPTINQLIPKVATEEIKSVSFENKTSVKQEQKVETSKKVIKTSSWSMTKSFSSTFSVEVSAGIPEIAEVSTGFSISFGVESTHSLEQTDEKNETLTTTVEVPPKKKVDVHITIGRASFDLPYTGTVKITCKNGSVLQYETKGQYKGVAYTDIKVNTVEKDL | soluble |
| MESGREVWPRDPKKAKQAIKQAEFKCEIDDTHETFVSEASRKNYMEAHHLIPLRMQHDFENSLDVVGNIVSICPNCHRLIHYGRDKDKKKVLELLFELEHHHHHH | soluble |
| MYEAGTVEWRLTMVYLEQFRFPDAEVEFDFFLRQKRTCYDTYYPFQILSKHRFEQIDFEPVTILYGGNGTGKSTVLNIIAQKLHLLREAPFNQSSFYEDYLELCSFESAAHLPKDSRIITSDDVFDYMLNIRNLNEGIDRKREMLFEEYLDTKFAKFRMKSLDDYEQLKRVNNARRKTQSQFIRSELMDNVREYSNGESAFLYFTEKVTENALFLLDEPENSLSPAKQQELVKFIEDSARFFGCQFVIATHSPFVLAIRGAKIYDLDEEPVDVKRWTELENVRAYYDFFKKHASEF | not soluble |
| GSEVYKKAPPYPEQVVSASGKVLMTKDDILAGQSAWQTTGGMEVGSILGHGAYQAPDWTADWLHRELVAWLDLTAQQTYGKKFDEVSPEEQAVLKTRLADEYRNQSRVKEDGSVVISDTRVKAIESILPYYHGVYSDDPKFQTTREHFAMKNNTLPSQEAREKLFNFFFWTSWSASTNRPDENFTYTNNWPHEPLINNVPTTEN | not soluble |
| MTPDVLFESLWQDYIQRLCPSAAKVHQLLQEDEALINDHIALRTFNVEPLGIETLAKPFLAAGYKACGDYVFESKKLVAKHYEHPDPKQPKVFISELKVEECSPDLQDIVAKLASQVDAEKLSGSAFLHGGRLWDLSFADYQTLAKESEYASWLAAHGYGANHFTVSVNQLNQHDEVKQVNDHLRQAGFVINESGGEVKGSPEVLLEQSSTMADKVPVTFEEGLEIIPGGFYEFAKRYPMENGELYPGFVAASADKIFESTNGLEHHHHHH | soluble |
| MGSDKIHHHHHHMIKLSYLTSYITCPRLCYFRVHVGEKRFTELTAVREIYLSLKQGFDLDWAKKRAKALHGAFDEEAFRSAANKFIFPQIDCKSVEVDATIKSKSLGLLVSVDEIVECDGELLPLFLGLNPPENGVWFKDMVKAGAAALAGNYSKALIYYGYTGDLRPVEVTFSLKKKVIKLIERVKLIQRGFLPERKESRYCNYCSFSEDCKSRAETFASKFL | not soluble |
